B1: PLD5 (parent)
chain: VTYMNMTAYNKGRLQSSFWIVDKQ
B2: HSP90AB1 (parent)
chain: YHTSQSGDEMTSLSEYVSRMKETQ

Variants of: B1
Assay: protein stability index of a GFP-peptide fusion (GPS, HEK-293T) (PSI 1-6); higher = more stable
Conditions: c terminus: a fixed tail appended
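Further: lentivirally expressed fusions sorted by FACS into six bins by GFP to DsRed ratio, PSI derived from sequencing read proportions per bin multiplied by bin number.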

Variant | protein stability index
LTYMNMTAYNKGRLQSSFWIVDKQ [V1L] | 1.97
HTYMNMTAYNKGRLQSSFWIVDKQ [V1H] | 1.61
PTYMNMTAYNKGRLQSSFWIVDKQ [V1P] | 2.11
GTYMNMTAYNKGRLQSSFWIVDKQ [V1G] | 2.21
KTYMNMTAYNKGRLQSSFWIVDKQ [V1K] | 2.73
NTYMNMTAYNKGRLQSSFWIVDKQ [V1N] | 2.88
ATYMNMTAYNKGRLQSSFWIVDKQ [V1A] | 1.44
WTYMNMTAYNKGRLQSSFWIVDKQ [V1W] | 2.46
YTYMNMTAYNKGRLQSSFWIVDKQ [V1Y] | 3.25
STYMNMTAYNKGRLQSSFWIVDKQ [V1S] | 2.17
QTYMNMTAYNKGRLQSSFWIVDKQ [V1Q] | 1.9
DTYMNMTAYNKGRLQSSFWIVDKQ [V1D] | 1.78
RTYMNMTAYNKGRLQSSFWIVDKQ [V1R] | 1.77
MTYMNMTAYNKGRLQSSFWIVDKQ [V1M] | 2.45
TTYMNMTAYNKGRLQSSFWIVDKQ [V1T] | 1.54
CTYMNMTAYNKGRLQSSFWIVDKQ [V1C] | 1.49
ETYMNMTAYNKGRLQSSFWIVDKQ [V1E] | 2.35
VTAMNMTAYNKGRLQSSFWIVDKQ [Y3A] | 1.99

Variant | protein stability index
VTCMNMTAYNKGRLQSSFWIVDKQ [Y3C] | 1.55
VTDMNMTAYNKGRLQSSFWIVDKQ [Y3D] | 3.2
VGYMNMTAYNKGRLQSSFWIVDKQ [T2G] | 2.08
VNYMNMTAYNKGRLQSSFWIVDKQ [T2N] | 1.29
VSYMNMTAYNKGRLQSSFWIVDKQ [T2S] | 1.87
VHYMNMTAYNKGRLQSSFWIVDKQ [T2H] | 2.6
VCYMNMTAYNKGRLQSSFWIVDKQ [T2C] | 2.25
VWYMNMTAYNKGRLQSSFWIVDKQ [T2W] | 1.4
VMYMNMTAYNKGRLQSSFWIVDKQ [T2M] | 2.88
VIYMNMTAYNKGRLQSSFWIVDKQ [T2I] | 1.76
VRYMNMTAYNKGRLQSSFWIVDKQ [T2R] | 1.91
VPYMNMTAYNKGRLQSSFWIVDKQ [T2P] | 1.68
VKYMNMTAYNKGRLQSSFWIVDKQ [T2K] | 2.52
VAYMNMTAYNKGRLQSSFWIVDKQ [T2A] | 2.55
VDYMNMTAYNKGRLQSSFWIVDKQ [T2D] | 1.67
VQYMNMTAYNKGRLQSSFWIVDKQ [T2Q] | 2.08
VEYMNMTAYNKGRLQSSFWIVDKQ [T2E] | 1.87

Variants of: B2
Assay: as above
Conditions: c terminus: a fixed tail appended

Variant | protein stability index
YHTSQSGDEMTSLSEYVSRMKATQ [E22A] | 3.07
YHTSQSGDEMTSLSEYVSRMKMTQ [E22M] | 3.31
YHTSQSGDEMTSLSEYVSRMKDTQ [E22D] | 3.83
YHTSQSGDEMTSLSEYVSRMKITQ [E22I] | 3.89
YHTSQSGDEMTSLSEYVSRMKQTQ [E22Q] | 3.94
YHTSQSGDEMTSLSEYVSRMKCTQ [E22C] | 4.17
YHTSQSGDEMTSLSEYVSRMKNTQ [E22N] | 3.84
YHTSQSGDEMTSLSEYVSRMKKTQ [E22K] | 3.63
YHTSQSGDEMTSLSEYVSRMKWTQ [E22W] | 1.79
YHTSQSGDEMTSLSEYVSRMKSTQ [E22S] | 3
YHTSQSGDEMTSLSEYVSRMKPTQ [E22P] | 3.17
YHTSQSGDEMTSLSEYVSRMKFTQ [E22F] | 3.71
YHTSQSGDEMTSLSEYVSRMKTTQ [E22T] | 3.67
YHTSQSGDEMTSLSEYVSRMKYTQ [E22Y] | 3.44
YHTSQSGDEMTSLSEYVSRMKHTQ [E22H] | 3.05
YHTSQSGDEMTSLSEYVSRMKGTQ [E22G] | 3.33
YHTSQSGDEMTSLSEYVSRMKLTQ [E22L] | 3.54
YHTSQSGDEMTSLSEYVSRMKVTQ [E22V] | 4.22
YHTSQSGDEMTSLSEYLSRMKETQ [V17L] | 3.56
YHTSQSGDEMTSLSEYDSRMKETQ [V17D] | 4.57

Variant | protein stability index
YHTSQSGDEMTSLSEYTSRMKETQ [V17T] | 3.72
YHTSQSGDEMTSLSEYESRMKETQ [V17E] | 4.49
YHTSQSGDEMTSLSEYFSRMKETQ [V17F] | 3.23
YHTSQSGDEMTSLSEYYSRMKETQ [V17Y] | 3.33
YHTSQSGDEMTSLSEYASRMKETQ [V17A] | 3.85
YHTSQSGDEMTSLSEYRSRMKETQ [V17R] | 4.27
YHTSQSGDEMTSLSEYWSRMKETQ [V17W] | 2.41
YHTSQSGDEMTSLSEYPSRMKETQ [V17P] | 3.86
YHTSQSGDEMTSLSEYCSRMKETQ [V17C] | 3.27
YHTSQSGDEMTSLSEYSSRMKETQ [V17S] | 3.87
YHTSQSGDEMTSLSEYNSRMKETQ [V17N] | 4.12
YHTSQSGDEMTSLSEYISRMKETQ [V17I] | 3.22
YHTSQSGDEMTSLSEYHSRMKETQ [V17H] | 3.54
YHTSQSGDEMTSLSEYKSRMKETQ [V17K] | 4.08
YHTSQSGDEMTSLSEYQSRMKETQ [V17Q] | 4.04
YHTSQSGDEMTSLSEYGSRMKETQ [V17G] | 3.76
YHTSQSGDEMTSLSEYVSRMKETR [Q24R] | 3.53
YHTSQSGDEMTSLSEYVSRMKETY [Q24Y] | 3.1
YHTSQSGDEMTSLSEYVSRMKETP [Q24P] | 3.43
YHTSQSGDEMTSLSEYVSRMKETM [Q24M] | 3.2

Variant | protein stability index
YHTSQSGDEMTSLSEYVSRMKETN [Q24N] | 3.62
YHTSQSGDEMTSLSEYVSRMKETD [Q24D] | 4.06
YHTSQSGDEMTSLSEYVSRMKETK [Q24K] | 3.43
YHTSQSGDEMTSLSEYVSRMKETC [Q24C] | 3.18
YHTSQSGDEMTSLSEYVSRMKETT [Q24T] | 3.64
YHTSQSGDEMTSLSEYVSRMKETF [Q24F] | 3.16
YHTSQSGDEMTSLSEYVSRMKETV [Q24V] | 3.19
YHTSQSGDEMTSLSEYVSRMKETE [Q24E] | 3.94
YHTSQSGDEMTSLSEYVSRMKETI [Q24I] | 3.05
YHTSQSGDEMTSLSEYVSRMKETL [Q24L] | 2.98
YHTSQSGDEMTSLSEYVSRMKETS [Q24S] | 3.61
YHTSQSGDEMTSLSEYVSRMKETG [Q24G] | 3.52
YHTSQSGDEMTSLSEYVSRMKETA [Q24A] | 3.26
YHTSQSGDEMTSLSEWVSRMKETQ [Y16W] | 2.69
YHTSQSGDEMTSLSEQVSRMKETQ [Y16Q] | 4.17
YHTSQSGDEMTSLSEVVSRMKETQ [Y16V] | 3.79
YHTSQSGDEMTSLSESVSRMKETQ [Y16S] | 4.22
YHTSQSGDEMTSLSETVSRMKETQ [Y16T] | 4.02
YHTSQSGDEMTSLSENVSRMKETQ [Y16N] | 4.3

Reference: the supplement of paper PMC10567573
